Source: article doi:10.1101/2022.10.27.514150

Molecular target: Gluc1-E2F4 (human), Q16254
Experiment: split reporter
Conditions: remark: other sources report otherwise

Gluc1-E2F4 (human), Q16254, sequence (Q16254 whole entry): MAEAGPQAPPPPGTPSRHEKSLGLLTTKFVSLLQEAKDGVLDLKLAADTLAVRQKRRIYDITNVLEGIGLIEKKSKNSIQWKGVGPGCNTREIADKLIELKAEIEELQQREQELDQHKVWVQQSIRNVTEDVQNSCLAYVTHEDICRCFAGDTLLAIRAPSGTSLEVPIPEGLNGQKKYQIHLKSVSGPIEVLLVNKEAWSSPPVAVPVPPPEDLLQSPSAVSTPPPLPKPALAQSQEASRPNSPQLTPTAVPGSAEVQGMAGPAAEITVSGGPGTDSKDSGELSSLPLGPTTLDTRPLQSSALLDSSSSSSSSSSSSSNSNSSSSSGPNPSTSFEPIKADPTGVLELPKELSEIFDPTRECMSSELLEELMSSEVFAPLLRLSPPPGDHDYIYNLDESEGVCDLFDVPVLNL

B1: Gluc2-p130, Q08999 1-1139 (natural protein)
chain: MPSGGDQSPPPPPPPPAAAASDEEEEDDGEAEDAAPPAESPTPQIQQRFDELCSRLNMDEAARAEAWDSYRSMSESYTLEGNDLHWLACALYVACRKSVPTVSKGTVEGNYVSLTRILKCSEQSLIEFFNKMKKWEDMANLPPHFRERTERLERNFTVSAVIFKKYEPIFQDIFKYPQEEQPRQQRGRKQRRQPCTVSEIFHFCWVLFIYAKGNFPMISDDLVNSYHLLLCALDLVYGNALQCSNRKELVNPNFKGLSEDFHAKDSKPSSDPPCIIEKLCSLHDGLVLEAKGIKEHFWKPYIRKLYEKKLLKGKEENLTGFLEPGNFGESFKAINKAYEEYVLSVGNLDERIFLGEDAEEEIGTLSRCLNAGSGTETAERVQMKNILQQHFDKSKALRISTPLTGVRYIKENSPCVTPVSTATHSLSRLHTMLTGLRNAPSEKLEQILRTCSRDPTQAIANRLKEMFEIYSQHFQPDEDFSNCAKEIASKHFRFAEMLYYKVLESVIEQEQKRLGDMDLSGILEQDAFHRSLLACCLEVVTFSYKPPGNFPFITEIFDVPLYHFYKVIEVFIRAEDGLCREVVKHLNQIEEQILDHLAWKPESPLWEKIRDNENRVPTCEEVMPPQNLERADEICIAGSPLTPRRVTEVRADTGGLGRSITSPTTLYDRYSSPPASTTRRRLFVENDSPSDGGTPGRMPPQPLVNAVPVQNVSGETVSVTPVPGQTLVTMATATVTANNGQTVTIPVQGIANENGGITFFPVQVNVGGQAQAVTGSIQPLSAQALAGSLSSQQVTGTTLQVPGQVAIQQISPGGQQQKQGQSVTSSSNRPRKTSSLSLFFRKVYHLAAVRLRDLCAKLDISDELRKKIWTCFEFSIIQCPELMMDRHLDQLLMCAIYVMAKVTKEDKSFQNIMRCYRTQPQARSQVYRSVLIKGKRKRRNSGSSDSRSHQNSPTELNKDRTSRDSSPVMRSSSTLPVPQPSSAPPTPTRLTGANSDMEEEERGDLIQFYNNIYIKQIKTFAMKYSQANMDAPPLSPYPFVRTGSPRRIQLSQNHPVYISPHKNETMLSPREKIFYYFSNSPSKRLREINSMIRTGETPTKKRGILLEDGSESPAKRICPENHSALLRRLQDVANDRGSH
normalized luminescence ratio (NLR): > 40
